B1: murine IL-18: murine IL-18, amino acid sequence SEQ ID NO:2; interferon-γ-inducing factor cytokine (protein, listed as Mus musculus)
chain: NFGRLHCTTAVIRNINDQVLFVDKRQPVFEDMTDIDQSASEPQTRLIIYMYKDSEVRGLAVTLSVKDSKMSTLSCKNKIISFEEMDPPENIDDIQSDLIFFQKRVPGHNKMEFESSLYEGHFLACQKEDDAFKLILKKKDENGDKSVMFTLTNLHQS

Columns and labels:
[1] = tested on: Chimpanzee PBMCs; test: Mediator induction in chimpanzee PBMCs (ELISA of supernatants); assay type: cell-based
Protocol: Chimpanzee or human PBMCs were isolated and treated with either control media, human IL-18 at 100 ng/ml, or IL-18 (100 ng/ml) in combination with IL-2 at 3 ng/ml. Supernatants were frozen following incubation for 24, 48, 72, or 96 hours. Mediator levels were analyzed by ELISA. […] Moreover there is synergy between IL-2 and IL-18 at inducing GM-CSF, IL-8, Neopterin, and IFN-gamma (FIGS. 9 and 10). These observations were confirmed in multiple chimp and human donors.
The highest protein levels were detected in samples obtained 96 hours post-treatment, with the exception of IFN-gamma that reached a maximum level at 24 hours.
In this study, treatment with IL-2 alone was used as control.

[2] = tested on: HSV-1 (SC-16); test: Lethal systemic HSV infection model; assay type: in vivo, mice
Protocol: Several studies evaluated the effect of murine IL-18 in a lethal systemic HSV infection model. Murine IL-18 was administered IP at −2 hours, 24 hours, and 48 hours following IP infection with HSV-1 (SC-16). IL-18 treatment at 10-ug/mouse lead to 40% survival in all studies, relative to no survival of vehicle treated animals (FIG. 5). […] In a single study, two daily doses of IL-18 at 100 ug/mouse lead to 70% survival (not shown).

[3] = tested on: GM-CSF, IFN-gamma, and TNF mRNA; test: Cytokine mRNA induction in spleens of uninfected mice (quantitative real-time PCR); assay type: in vivo, Female Balb/C mice
[4] = tested on: TNF-α, IFN-γ, and GM-CSF; test: Cytokine protein induction in uninfected mice (ELISA of sera and spleen homogenates); assay type: in vivo, Female Balb/C mice
[5] = tested on: Hepatitis B Virus (HBV); test: HBV transgenic mice, liver HBV DNA by Southern blot; assay type: in vivo; settings: Day 3
Protocol: HBV transgenic mice (Guidotti et. al, 1995. J. Virol 69:6158-6169) were treated with three daily subcutaneous injections (Days 0, 1 and 2) of 4 different doses (100, 10, 1 and 0.1 microgram) of recombinant murine IL-18, with analysis of the liver for HBV DNA on Day 3 by Southern blot.

[6] = post-treatment, IL-18 100 ng/ml

| Molecule | IL-8 induction ([1]; IL-18 100 ng/ml, FIG. 9(a), donor species of FIG. 9 not given) | Neopterin induction ([1]; IL-18 100 ng/ml, FIG. 9(b), donor species of FIG. 9 not given) | GM-CSF induction ([1]; IL-18 100 ng/ml, FIG. 9(c), donor species of FIG. 9 not given) | IFN-gamma induction ([1]; IL-18 100 ng/ml, FIG. 9(d), donor species of FIG. 9 not given) | inducing cytokine expression in chimp PBMCs ([1]; human IL-18 100 ng/ml, 24-96 hours) | time of highest protein levels (IL-8, Neopterin, GM-CSF) [1, 6] | time of maximum IFN-gamma level [1, 6] | survival ([2]; 10-ug/mouse IP at -2, 24 and 48 hours, vehicle: no survival) | time to death ([2]; all studies) | survival ([2]; two daily doses at 100 ug/mouse, single study, not shown) | IFN γ mRNA induction over vehicle ([3]; 2.5-6 hours post injection, real-time PCR, spleen) | TNF mRNA induction ([3]; quantitative real-time PCR) | GM-CSF mRNA induction relative to vehicle control ([3]; real-time PCR, data not shown) | induction of GM-CSF protein ([4]; IP 10 or 100 ug) | IFN levels in sera and spleens ([4]; IP 10 or 100 ug murine IL-18, by 2.5 hours post-treatment) | induction of TNF-α protein ([4]; IP 10 or 100 ug, called minimal induction) | reduction of liver HBV DNA at lowest dose ([5]; 0.1 micrograms sc Days 0, 1, 2) | reduction of liver HBV DNA at higher doses ([5]; 1, 10, 100 microgram sc Days 0, 1, 2) | virus replication (levels of viral DNA in liver) ([5]; three daily sc injections, 100, 10, 1 and 0.1 microgram) |
| --- | --- | --- | --- | --- | --- | --- | --- | --- | --- | --- | --- | --- | --- | --- | --- | --- | --- | --- | --- |
| human IL-18: human IL-18, amino acid sequence SEQ ID NO:1; 157 amino acid cytokine, interferon-γ-inducing factor | 14 fold | 7 fold | 100 fold | 8 fold | active | 96 h | 24 h | – | – | – | – | – | – | – | – | – | – | – | – |
| B1 | – | – | – | – | – | – | – | 40% | delay in time to death | 70% | up to 20 fold | observed | 6-10 fold | no induction | 2 ng/mL | 100 pg/mL | some reduction | greater reductions | dose-dependent reduction |

— patent publication US20030113292A1, “Methods of treating viral diseases with il-18 and il-18 combinations” (priority 2000, published 2003)
